Experimental data as given in the supplement of paper PMC12042874.
± gives the uncertainty stated by the source.

test: amyloid nucleation score (Sup35N fusion, yeast selection) (log enrichment); library NNK3; higher = more nucleation; inactive = no reads after selection
Procedure, shortened: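 Growth for 7 days at 30°C on medium lacking adenine and uracil followed a 24-hour induction with 100 μM copper sulfate of psi-negative yeast expressing peptides of 20 random codons fused to Sup35N. Input and output plasmid inserts were sequenced with Illumina, and sequences with under 100 input reads were excluded. Nucleation score is the DiMSum log enrichment of output over input reads, centred on the mode score of non-aggregating sequences.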

Substance	amyloid nucleation score
SYCLTGTDSVINVIGAGPSQ	inactive
YSGSNCLSSDEYWWRDDSLT	inactive
ITAVVVSDMYH	inactive
FRNRLGSTDNQWV	inactive
SFYSNFRESRDLSSYTLNIS	inactive
VHFYWS	inactive
DFKDCDICTTPNDKVESGKV	inactive
CRIPALTTTMLITNG	inactive
NELCLVMIKKDVSMRVWLES	inactive
SELRWYL	inactive
LMSYSRFGCSDSYLNVDSSA	inactive
FVCFIKLRLVDSRIVTNFQR	inactive
LSFSRDRLLHSSWGTKLMIM	inactive
GGMYKNWGCWLELLGKTLPW	inactive
CWAYF	inactive
IFIYGPLPPVRCYHYDWWNL	inactive
EGRNFRCLFG	inactive
AKARMNGEDGARLTSMHSLY	inactive
FGKRQSAMLLDLNSGWSNLD	-0.42 ± 1.3
WRVSLWLGWNLFWTCSNPAD	inactive
KSLSIRFYWVSPWTVVWDSR	0.872 ± 0.11
VLRETLR	inactive
IFWHQRRLMTCCNKYTFGYG	inactive
YKEMVHRSG	inactive
NFHQMW	inactive
YIMAFCCLLPNPPVSVLMAH	inactive
GGVRPVKYGSVWVYRFWDQC	inactive

Substance	amyloid nucleation score
LVVDYLEFCTFLVDVENIWT	inactive
SPVAYRSTWFVFRNNSHYDQ	inactive
FINMKIKQTYMRVFFWICAV	inactive
EFSVLWMLQMDHSTLKFANS	inactive
CPPGWRCQHKLDLTLGPDRW	inactive
TMLYGSIRQSGDMQMSTLSV	inactive
TLGPKEGWLVSNWMWSRVII	inactive
LFLGLVLAHPPDRVRLSTVL	inactive
FCYVSCLS	inactive
GNGSMVVYKSARVNLLSGIT	inactive
PKGEGIMISLFLDCTRLVNG	2.11 ± 0.077
RIPLWCFS	inactive
DSKSSYK	inactive
EVRPCNMLGLRNIGRGYREN	inactive
YHPYRWLHESRL	inactive
SVNNVAWWHYGKMRVNFTFS	-0.552 ± 0.71
SVSVLHSYYLIYVCRDFFMK	0.865 ± 0.12
QSRPKMMFLDSGCFWGFCVR	inactive
KGVGFPVCTSNG	inactive
VCWMSVRDNNNGHFLIYSSD	inactive
CPSWCYFNRGDV	1.39 ± 0.091
LRTPGTGSFAESEDLSMTEG	inactive
DSFVLYALCNYWCSFCIKGA	1.8 ± 0.09
CFNSR	inactive
QQWWLLFSLC	inactive
IILFKCWCKWEASGSATIVD	inactive
GCNRVIYKRI	-0.609 ± 1.2

Substance	amyloid nucleation score
SQYHQASNAMWVLFSGI	inactive
QILVLHIR	1.71 ± 0.079
FYFVGKYWRGDEYFDFRLAV	inactive
TTGLISSNGVTG	inactive
PLSFIKRRFRRLAGLSRSSA	inactive
KTLVRNMDNKPCRFSLTSNF	inactive
YPNIERFTETWISYVDQNRG	-0.083 ± 0.58
YTYECRCH	inactive
LHMEG	-0.611 ± 1.1
TIVTIVAFFNMERYGHFRGD	0.903 ± 0.11
CDAAWPVNSPFWYLFLWC	inactive
ISESKLMLTRWDGVFVTIWD	inactive
LYMYYWLSYVV	inactive
GLTTSYQPYILYIL	inactive
ETGDI	1.64 ± 0.087
LAVVDCGYM	inactive
PTLILWDFCCLVLVEAFYGC	inactive
WFEEATRGRNETS	inactive
SNFVIVSWIVTNVLRM	0.869 ± 0.094
SGSLHACLALWTLTTYCVST	inactive
FMRDIKLTGGCGVNCAHLHA	inactive
GIWCDITHGNRMAWNYVLIR	inactive
VSVDWGLPRFGYTYKIL	inactive
YVAIMLAKSKTRS	inactive
CCGQIADSFLPKSSRGEVRN	inactive
DMGTTCPSCSKRLAGQGKAA	inactive
